{"source": "patent US20190353661A1", "about": "(VANDERBILT UNIVERSITY, published 2019)", "binders": {"B1": {"name": "Human IgE mAb 1B7 (antibody, V domains shown)", "VH": "EFQLQESGPGLVKPSETLSLNCSVSGGSISNNYWNWIRQPPGKGLEWIGYISYSGRTHYNPSLKSRVSISLHTSKNHFSLKLTSVAAADTAMYYCARESTYSYKLGDAFDIWGQGTMVTVSA", "VL": "not shown"}, "B2": {"name": "Human IgE mAb 14H4 (antibody, V domains shown)", "VH": "EVQLVQSGAEVKRAGESLKISCKGSGYPFATYWVGWVRQMPGKGLEWMTIIYPEDSDTRYSPSFQDHVTISADKSLSTAYLQWSSLKASDTAMYYCARVSRYYYDSRSYYPDAFDIWGQGTMVTVSS", "VL": "SYELTQPPSVSVSPGQTASITCSGDKLGDKYVCWYQQKPGRSPVLVVHQDTKRPSGIPERFSGSNSGDTATLTISGTQAMDEADYYCQAWDSTIGVFGPGTRVTVL", "notes": "Natural human IgE from a hybridoma"}, "B3": {"name": "Human IgE mAb 1A8 (antibody, V domains shown)", "VH": "QLQLQESGPGLVKPSETLSLTCSVSDDSISTPSYFWTWIRQPPGKGLEWIASIYYTGTTYYNPSLKSRVTLSVDTPKRQFFLRLSSVTAADTAVYYCARYLDYVWLRAFDVWGQGAMVTVSS", "VL": "EIVLTQSPATLSLSPGERATLSCRASPSVGRFLAWYQQKPGQAPRLLIYDASQRATDIPARFSASGSGTDFTLTIDSLEPEDFAIYYCQHRSNWPVTFGGGTRVEIK", "notes": "as for B2"}, "B4": {"name": "Human IgE mAb 8F3 (antibody, V domains shown)", "VH": "QLQLQESGPGLVKPSETLSLTCTVSDASIDTPSYFWSWIRQPPGKGLEWIGSIYYTGNKYSNPSLKSRVTMSVDTPKRQFSLRLSSVTAADTAVYYCARYVDYVWLRAFDIWGQGTRVTVSS", "VL": "B3 VL with V29A, K39R, Q53K, I58T, A64G, T72N, D76A, I85V, V96L, R103K", "notes": "as for B2"}, "B5": {"name": "Human IgE mAb 1C14 (antibody, V domains shown)", "VH": "QVQLQESGPGLVKPSQTLSLTCTVSGGSISSGGFFWGWIRQHPGRDLEWIGYIFYTGSTNYNPSLKNRVTLSVDTSKNHFSLNLTSVTVADTAVYYCARQGGVRGNYYFMDVWGKGTTVTVSS", "VL": "DIQMTQSPSSLSASVGDRVTITCRASQSISNYLNWYQQKPGKAPKLLIYAASRLQSGVPSRFSGSGSGTELTLTISSLQPEDFATYFCQQSYNTPYSFGQGTKVEIK", "notes": "as for B2"}}, "assay_in_all_cases": "Phadia diagnostics and/or Western blot", "key": {"[1]": {"molecular_target": "T1, Cat allergen Fel d 1 (cat, UniProt P30438 23-92; P30440 18-109)", "T1 sequence (looked up) 1": "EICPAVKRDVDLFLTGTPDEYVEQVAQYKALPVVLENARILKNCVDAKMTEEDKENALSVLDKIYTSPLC", "T1 sequence (looked up) 2": "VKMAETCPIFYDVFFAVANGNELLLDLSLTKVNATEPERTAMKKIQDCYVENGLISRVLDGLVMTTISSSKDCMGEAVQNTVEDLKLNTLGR"}, "[2]": {"molecular_target": "T2, Aspergillus fumigatus allergen Asp f 1 (Aspergillus fumigatus, UniProt P67875 28-176)", "T2 sequence": "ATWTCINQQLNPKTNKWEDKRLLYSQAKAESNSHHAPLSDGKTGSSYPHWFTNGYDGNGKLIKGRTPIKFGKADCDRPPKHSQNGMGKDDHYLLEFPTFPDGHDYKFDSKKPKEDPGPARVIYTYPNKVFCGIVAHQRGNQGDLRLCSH"}, "[3]": {"molecular_target": "T3, Peanut allergen Ara h 6 (peanut, UniProt Q647G9 22-145)", "T3 sequence (looked up)": "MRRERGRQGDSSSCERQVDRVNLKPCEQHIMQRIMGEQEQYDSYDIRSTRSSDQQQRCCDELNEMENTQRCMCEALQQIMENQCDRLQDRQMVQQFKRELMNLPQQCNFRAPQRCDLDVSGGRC"}, "[4]": {"molecular_target": "T4, Dust mite allergen Der p 1 (dust mite (Dermatophagoides …, UniProt P08176 99-320))", "T4 sequence (looked up)": "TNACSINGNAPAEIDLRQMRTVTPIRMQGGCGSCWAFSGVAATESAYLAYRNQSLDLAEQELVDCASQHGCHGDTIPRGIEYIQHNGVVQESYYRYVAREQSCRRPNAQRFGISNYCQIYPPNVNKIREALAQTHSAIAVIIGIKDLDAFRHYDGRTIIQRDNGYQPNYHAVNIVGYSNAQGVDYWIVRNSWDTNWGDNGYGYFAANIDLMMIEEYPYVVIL"}}, "note": "Substitutions are numbered along the chain they refer to."}
{"binder": "B1", "values": [{"measurement": "binding result", "setting": "[1]", "result": "binds"}]}
{"binder": "B2", "values": [{"measurement": "binding result", "setting": "[2]", "result": "binds"}]}
{"binder": "B3", "values": [{"measurement": "binding result", "setting": "[3]", "result": "binds"}]}
{"binder": "B4", "values": [{"measurement": "binding result", "setting": "[3]", "result": "binds"}]}
{"binder": "B5", "values": [{"measurement": "binding result", "setting": "[4]", "result": "binds"}]}
